Source: PMC9879097, “Borrelia burgdorferi DnaA and the Nucleoid-Associated Protein EbfC Coordinate Expression of the dnaX-ebfC Operon”

T1: EbfC (Borrelia burgdorferi, UniProt O51418 1-99)
T1 sequence: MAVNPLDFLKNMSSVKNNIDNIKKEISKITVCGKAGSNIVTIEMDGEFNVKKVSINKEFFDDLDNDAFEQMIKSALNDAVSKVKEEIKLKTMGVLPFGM

T2: GST-DnaA (Borrelia burgdorferi, UniProt P33768 1-486)
T2 sequence: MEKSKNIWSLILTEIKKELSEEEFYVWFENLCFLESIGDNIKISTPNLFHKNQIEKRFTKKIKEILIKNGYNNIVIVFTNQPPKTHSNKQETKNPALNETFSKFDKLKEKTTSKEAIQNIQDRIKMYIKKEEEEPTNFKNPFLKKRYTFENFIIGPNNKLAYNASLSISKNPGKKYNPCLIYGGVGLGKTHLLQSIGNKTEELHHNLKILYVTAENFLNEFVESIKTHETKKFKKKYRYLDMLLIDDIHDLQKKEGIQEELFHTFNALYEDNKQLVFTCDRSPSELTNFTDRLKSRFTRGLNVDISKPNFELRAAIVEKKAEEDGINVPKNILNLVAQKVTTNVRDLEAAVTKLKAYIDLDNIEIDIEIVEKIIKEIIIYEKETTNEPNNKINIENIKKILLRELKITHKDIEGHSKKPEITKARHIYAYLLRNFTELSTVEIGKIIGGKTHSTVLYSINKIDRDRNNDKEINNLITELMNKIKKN

B1: probe 2, consensus EbfC motif (dsDNA)
DNA 1: GGATTTGTCTTTTTGTAACTTTCAATTTTA
DNA 2: TAAAATTGAAAGTTACAAAAAGACAAATCC
B2: EbfC RNA, dnaX-ebfC 5' UTR 30-mer (ssRNA)
RNA: GGAUUUGUCUUUUUGUAACUUUCAAUUUUA
B3: unlabeled dnaX-ebfC RNA competitor (ssRNA)
RNA: B2 RNA
B4: flaB RNA competitor (ssRNA)
RNA: AGGCAAAAGGAUUUGCCAAAGUCAGAAAUU
B5: Competitor 2 (C2) (dsDNA)
DNA 1: GGATTTGTCTTTTTGTAACTTTCAATTTTATTATATTTTTTATGT
DNA 2: ACATAAAAAATATAATAAAATTGAAAGTTACAAAAAGACAAATCC
B6: Competitor 3 (C3) (dsDNA)
DNA 1: TTCATAAAATTCTTTTAAAGTAATAGCTCTGAGATATAAATATGT
DNA 2: ACATATTTATATCTCAGAGCTATTACTTTAAAAGAATTTTATGAA
B7: Competitor 5 (C5) (dsDNA)
DNA 1: AAATGCAATGTTTTGCTTTATGTTAAGATATGGATTTGTCTTTTT
DNA 2: AAAAAGACAAATCCATATCTTAACATAAAGCAAAACATTGCATTT
B8: Competitor 6 (C6) (dsDNA)
DNA 1: TTTCAATTTTATTATATTTTTTATGTTTCATAAAATTCTTTTAAA
DNA 2: TTTAAAAGAATTTTATGAAACATAAAAAATATAATAAAATTGAAA

What was measured:
EbfC [1] = biological target: T1, EbfC; test: EMSA; poly(dI-dC) 2.5 ng/uL; 3.75-30 uM EbfC; 50 mM Tris-HCl (pH not stated), 50 mM KCl, 1 mM EDTA, 1 mM PMSF, 1 mM DTT, 0.01% Tween 20, 10% glycerol; room temperature 15 min; GST-DnaA reactions with 1 mM MgCl2 and 1 mM ATP or ADP; 100 nM DNA or 20 nM RNA probe; conditions: protein: recombinant; tags: N-terminal 6xHis (pET200); chain copies: 2; label: 5' IRDye800 on strand 1; blunt
EbfC [2] = biological target: T1, EbfC; test: EMSA; 5-15 uM EbfC; two complexes; 50 mM Tris-HCl (pH not stated), 50 mM KCl, 1 mM EDTA, 1 mM PMSF, 1 mM DTT, 0.01% Tween 20, 10% glycerol; room temperature 15 min; GST-DnaA reactions with 1 mM MgCl2 and 1 mM ATP or ADP; 100 nM DNA or 20 nM RNA probe; conditions: protein: recombinant; tags: N-terminal 6xHis (pET200); chain copies: 2; label: 5' Alexa Fluor 647 (probe)
EbfC [3] = biological target: T1, EbfC; test: competition; 50x excess vs N13; only smaller complex eliminated; 50 mM Tris-HCl (pH not stated), 50 mM KCl, 1 mM EDTA, 1 mM PMSF, 1 mM DTT, 0.01% Tween 20, 10% glycerol; room temperature 15 min; GST-DnaA reactions with 1 mM MgCl2 and 1 mM ATP or ADP; 100 nM DNA or 20 nM RNA probe; conditions: protein: recombinant; tags: N-terminal 6xHis (pET200); chain copies: 2
EbfC [4] = biological target: T1, EbfC; test: competition; 50x excess vs N13; 50 mM Tris-HCl (pH not stated), 50 mM KCl, 1 mM EDTA, 1 mM PMSF, 1 mM DTT, 0.01% Tween 20, 10% glycerol; room temperature 15 min; GST-DnaA reactions with 1 mM MgCl2 and 1 mM ATP or ADP; 100 nM DNA or 20 nM RNA probe; conditions: protein: recombinant; tags: N-terminal 6xHis (pET200); chain copies: 2
GST-DnaA = biological target: T2, GST-DnaA; test: competition; ATP, Mg2+; 10x excess vs N1; 50 mM Tris-HCl (pH not stated), 50 mM KCl, 1 mM EDTA, 1 mM PMSF, 1 mM DTT, 0.01% Tween 20, 10% glycerol; room temperature 15 min; GST-DnaA reactions with 1 mM MgCl2 and 1 mM ATP or ADP; 100 nM DNA or 20 nM RNA probe; conditions: protein: recombinant; tags: N-terminal GST; blunt

| Binder | binding result (GST-DnaA) | also measured |
| --- | --- | --- |
| B1 |  | binding result (EbfC [1]): binds |
| B2 |  | binding result (EbfC [2]): binds |
| B3 |  | binding result (EbfC [3]): binds |
| B4 |  | binding result (EbfC [4]): no binding |
| B5 | binds |  |
| B6 | binds |  |
| B7 | no binding |  |
| B8 | no binding |  |
